# Test results taken from the supplement of paper PMC12338614.
# ± gives the uncertainty stated by the source.
# B1: library; numbered along this chain (parent)
# chain: MEVVDPQQLGMFTEGELMSVGMDTFIHRIDSTEVIYQPRRKRAKLIGKYLMGDLLGEGSYGKVKEVLDSETLCRRAVKILKKKKLRRIPNGEANVKKEIQLLRRLRHKNVIQLVDVLYNEEKQKMYMVMEYCVCGMQEMLDSVPEKRFPVCQAHGYFCQLIDGLEYLHSQGIVHKDIKPGNLLLTTGGTLKISDLGVAEALHPFAADDTCRTSQGSPAFQPPEIANGLDTFSGFKVDIWSAGVTLYNITTGLYPFEGDNIYKLFENIGKGSYAIPGDCGPPLSDLLKGMLEYEPAKRFSIRQIRQHSWFRKKHPPAEAPVPIPPSPDTKDRWRSMTVVPYLEDLHGADEDEDLFDIEDDIIYTQDFTVPGQVPEEEASHNGQRRGLPKAVCMNGTEAAQLSTKSRAEGRAPNPARKACSASSKIRRLSACKQQ
# Variants of: B1
# Experiment: STK11 functional score (HeLa growth suppression), rescaled enrichment; synonymous median = 1, nonsense median = 0 (normalised score)
# Details: with HeLa; variant type: missense
# Procedure: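 Deep mutational scan (TileSeq/POPCode codon randomisation) of full-length codon-optimised STK11 cDNA integrated at a Bxb1 landing pad (AAVS1) in HeLa cells. Restoring functional STK11 suppresses HeLa proliferation. Variant frequencies were measured by NGS before and after about two weeks of growth. The error-corrected enrichment log-ratio was rescaled so that synonymous median = 1 and nonsense median = 0, scores above 1 were compressed, and codon-level and three biological replicate scores were combined; error is the bootstrapped standard error. Scale: synonymous median = 1, nonsense median = 0; below 0.5 = damaging.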
row,Variant,STK11 functional score
1,MEVVDPQLLGMFTEGELMSVGMDTFIHRIDSTEVIYQPRRKRAKLIGKYLMGDLLGEGSYGKVKEVLDSETLCRRAVKILKKKKLRRIPNGEANVKKEIQLLRRLRHKNVIQLVDVLYNEEKQKMYMVMEYCVCGMQEMLDSVPEKRFPVCQAHGYFCQLIDGLEYLHSQGIVHKDIKPGNLLLTTGGTLKISDLGVAEALHPFAADDTCRTSQGSPAFQPPEIANGLDTFSGFKVDIWSAGVTLYNITTGLYPFEGDNIYKLFENIGKGSYAIPGDCGPPLSDLLKGMLEYEPAKRFSIRQIRQHSWFRKKHPPAEAPVPIPPSPDTKDRWRSMTVVPYLEDLHGADEDEDLFDIEDDIIYTQDFTVPGQVPEEEASHNGQRRGLPKAVCMNGTEAAQLSTKSRAEGRAPNPARKACSASSKIRRLSACKQQ [Q8L],1.5 ± 0.66
2,MEVVDPQKLGMFTEGELMSVGMDTFIHRIDSTEVIYQPRRKRAKLIGKYLMGDLLGEGSYGKVKEVLDSETLCRRAVKILKKKKLRRIPNGEANVKKEIQLLRRLRHKNVIQLVDVLYNEEKQKMYMVMEYCVCGMQEMLDSVPEKRFPVCQAHGYFCQLIDGLEYLHSQGIVHKDIKPGNLLLTTGGTLKISDLGVAEALHPFAADDTCRTSQGSPAFQPPEIANGLDTFSGFKVDIWSAGVTLYNITTGLYPFEGDNIYKLFENIGKGSYAIPGDCGPPLSDLLKGMLEYEPAKRFSIRQIRQHSWFRKKHPPAEAPVPIPPSPDTKDRWRSMTVVPYLEDLHGADEDEDLFDIEDDIIYTQDFTVPGQVPEEEASHNGQRRGLPKAVCMNGTEAAQLSTKSRAEGRAPNPARKACSASSKIRRLSACKQQ [Q8K],0.838 ± 0.23
3,MEVVDPQQHGMFTEGELMSVGMDTFIHRIDSTEVIYQPRRKRAKLIGKYLMGDLLGEGSYGKVKEVLDSETLCRRAVKILKKKKLRRIPNGEANVKKEIQLLRRLRHKNVIQLVDVLYNEEKQKMYMVMEYCVCGMQEMLDSVPEKRFPVCQAHGYFCQLIDGLEYLHSQGIVHKDIKPGNLLLTTGGTLKISDLGVAEALHPFAADDTCRTSQGSPAFQPPEIANGLDTFSGFKVDIWSAGVTLYNITTGLYPFEGDNIYKLFENIGKGSYAIPGDCGPPLSDLLKGMLEYEPAKRFSIRQIRQHSWFRKKHPPAEAPVPIPPSPDTKDRWRSMTVVPYLEDLHGADEDEDLFDIEDDIIYTQDFTVPGQVPEEEASHNGQRRGLPKAVCMNGTEAAQLSTKSRAEGRAPNPARKACSASSKIRRLSACKQQ [L9H],1.67 ± 0.15
4,MEVVDPQQFGMFTEGELMSVGMDTFIHRIDSTEVIYQPRRKRAKLIGKYLMGDLLGEGSYGKVKEVLDSETLCRRAVKILKKKKLRRIPNGEANVKKEIQLLRRLRHKNVIQLVDVLYNEEKQKMYMVMEYCVCGMQEMLDSVPEKRFPVCQAHGYFCQLIDGLEYLHSQGIVHKDIKPGNLLLTTGGTLKISDLGVAEALHPFAADDTCRTSQGSPAFQPPEIANGLDTFSGFKVDIWSAGVTLYNITTGLYPFEGDNIYKLFENIGKGSYAIPGDCGPPLSDLLKGMLEYEPAKRFSIRQIRQHSWFRKKHPPAEAPVPIPPSPDTKDRWRSMTVVPYLEDLHGADEDEDLFDIEDDIIYTQDFTVPGQVPEEEASHNGQRRGLPKAVCMNGTEAAQLSTKSRAEGRAPNPARKACSASSKIRRLSACKQQ [L9F],1.06 ± 0.19
5,MEVVDPQQIGMFTEGELMSVGMDTFIHRIDSTEVIYQPRRKRAKLIGKYLMGDLLGEGSYGKVKEVLDSETLCRRAVKILKKKKLRRIPNGEANVKKEIQLLRRLRHKNVIQLVDVLYNEEKQKMYMVMEYCVCGMQEMLDSVPEKRFPVCQAHGYFCQLIDGLEYLHSQGIVHKDIKPGNLLLTTGGTLKISDLGVAEALHPFAADDTCRTSQGSPAFQPPEIANGLDTFSGFKVDIWSAGVTLYNITTGLYPFEGDNIYKLFENIGKGSYAIPGDCGPPLSDLLKGMLEYEPAKRFSIRQIRQHSWFRKKHPPAEAPVPIPPSPDTKDRWRSMTVVPYLEDLHGADEDEDLFDIEDDIIYTQDFTVPGQVPEEEASHNGQRRGLPKAVCMNGTEAAQLSTKSRAEGRAPNPARKACSASSKIRRLSACKQQ [L9I],1.37 ± 0.3
6,MEVVDPQQCGMFTEGELMSVGMDTFIHRIDSTEVIYQPRRKRAKLIGKYLMGDLLGEGSYGKVKEVLDSETLCRRAVKILKKKKLRRIPNGEANVKKEIQLLRRLRHKNVIQLVDVLYNEEKQKMYMVMEYCVCGMQEMLDSVPEKRFPVCQAHGYFCQLIDGLEYLHSQGIVHKDIKPGNLLLTTGGTLKISDLGVAEALHPFAADDTCRTSQGSPAFQPPEIANGLDTFSGFKVDIWSAGVTLYNITTGLYPFEGDNIYKLFENIGKGSYAIPGDCGPPLSDLLKGMLEYEPAKRFSIRQIRQHSWFRKKHPPAEAPVPIPPSPDTKDRWRSMTVVPYLEDLHGADEDEDLFDIEDDIIYTQDFTVPGQVPEEEASHNGQRRGLPKAVCMNGTEAAQLSTKSRAEGRAPNPARKACSASSKIRRLSACKQQ [L9C],1.54 ± 0.14
7,MEVVDPQQAGMFTEGELMSVGMDTFIHRIDSTEVIYQPRRKRAKLIGKYLMGDLLGEGSYGKVKEVLDSETLCRRAVKILKKKKLRRIPNGEANVKKEIQLLRRLRHKNVIQLVDVLYNEEKQKMYMVMEYCVCGMQEMLDSVPEKRFPVCQAHGYFCQLIDGLEYLHSQGIVHKDIKPGNLLLTTGGTLKISDLGVAEALHPFAADDTCRTSQGSPAFQPPEIANGLDTFSGFKVDIWSAGVTLYNITTGLYPFEGDNIYKLFENIGKGSYAIPGDCGPPLSDLLKGMLEYEPAKRFSIRQIRQHSWFRKKHPPAEAPVPIPPSPDTKDRWRSMTVVPYLEDLHGADEDEDLFDIEDDIIYTQDFTVPGQVPEEEASHNGQRRGLPKAVCMNGTEAAQLSTKSRAEGRAPNPARKACSASSKIRRLSACKQQ [L9A],1.28 ± 0.12
